Test results reported in patent EP1664122B1 (Novartis AG, dated 2010).

What was measured:
[1] = biological target: human CD45 on the human T cell line PEER (human) (UniProt P08575); test: FACS competition with FITC-conjugated mA6 on PEER cells; curve fit assuming divalent antibody binding
[2] = biological target: T1, cynomolgus monkey CD45 on the T cell line HSC-F (cynomolgus monkey, UniProt A0A2K5VQ76 26-1301); test: FACS competition with FITC-conjugated mA6 on HSC-F cells; curve fit assuming divalent antibody binding
T1 construct: whole, on cells; also called cynomolgus HSC-F cell target
T1 sequence: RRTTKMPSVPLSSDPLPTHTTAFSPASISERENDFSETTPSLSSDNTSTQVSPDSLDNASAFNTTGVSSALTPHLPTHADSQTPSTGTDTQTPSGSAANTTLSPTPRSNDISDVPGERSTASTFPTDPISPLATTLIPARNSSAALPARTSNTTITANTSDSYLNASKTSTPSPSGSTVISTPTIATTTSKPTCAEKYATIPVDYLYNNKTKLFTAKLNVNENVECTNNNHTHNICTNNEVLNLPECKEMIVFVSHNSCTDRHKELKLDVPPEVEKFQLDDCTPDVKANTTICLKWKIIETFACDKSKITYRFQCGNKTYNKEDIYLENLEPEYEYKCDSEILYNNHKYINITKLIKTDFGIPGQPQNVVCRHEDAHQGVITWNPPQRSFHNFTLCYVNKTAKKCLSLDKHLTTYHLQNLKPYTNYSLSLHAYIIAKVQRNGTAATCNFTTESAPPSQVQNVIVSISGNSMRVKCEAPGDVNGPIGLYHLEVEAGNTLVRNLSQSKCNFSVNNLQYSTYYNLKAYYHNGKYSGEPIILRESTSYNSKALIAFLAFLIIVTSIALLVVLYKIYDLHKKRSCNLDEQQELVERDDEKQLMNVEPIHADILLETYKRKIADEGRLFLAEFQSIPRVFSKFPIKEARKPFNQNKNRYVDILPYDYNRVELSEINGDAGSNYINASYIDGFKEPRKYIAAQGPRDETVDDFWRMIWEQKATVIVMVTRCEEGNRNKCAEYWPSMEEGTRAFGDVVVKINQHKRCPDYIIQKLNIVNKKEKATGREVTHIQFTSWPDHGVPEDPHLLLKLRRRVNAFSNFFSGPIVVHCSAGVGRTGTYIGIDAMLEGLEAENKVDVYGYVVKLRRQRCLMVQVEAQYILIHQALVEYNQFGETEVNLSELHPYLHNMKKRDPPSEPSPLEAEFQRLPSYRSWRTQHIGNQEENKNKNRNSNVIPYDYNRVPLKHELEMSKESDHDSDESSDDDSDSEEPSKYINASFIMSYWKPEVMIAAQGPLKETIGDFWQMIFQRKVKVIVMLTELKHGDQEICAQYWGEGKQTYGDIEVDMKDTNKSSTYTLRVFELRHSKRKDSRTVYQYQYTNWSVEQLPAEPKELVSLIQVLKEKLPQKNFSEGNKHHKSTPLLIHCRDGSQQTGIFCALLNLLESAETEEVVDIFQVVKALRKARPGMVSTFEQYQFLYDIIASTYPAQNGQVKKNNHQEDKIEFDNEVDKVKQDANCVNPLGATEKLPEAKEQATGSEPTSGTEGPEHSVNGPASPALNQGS

Kd [1]: 2.44 nM | Kd [2]: 1.67 nM
B1: humanised antibody VHE-N73D/humV1 (antibody, V domains shown)
VH: EVQLVESGAEVKKPGASVKVSCKASGYTFTNYIIHWVKQEPGQGLEWIGYFNPYNHGTKYNEKFKGRATLTADKSISTAYMELSSLRSEDTAVYYCARSGPYAWFDTWGQGTTVTVSS
VL: DILLTQSPATLSLSPGERATLSCRASQNIGTSIQWYQQKPGQAPRLLIRSSSESISGIPSRFSGSGSGTDFTLTISSLEPEDFAVYYCQQSNTWPFTFGQGTKLEIK
notes: Constant parts are human gamma-1 and human kappa; expressed in Sp2/0 cells; also called VHEN73D/VL1; VHEN73D/VLh
